Experimental data published in patent publication US5688912A, “Peptide ligands which bind to von willebrand factor” (Bayer Corporation, priority 1995, dated 1997).
No end group written: not given here.

Experiments:
Format in all cases: binding
[1] = target: T1, von Willebrand Factor (vWF) (Homo sapiens, UniProt P04275); experiment: Batch adsorption isotherm of vWF onto peptide-Toyopearl, Langmuir fit; set-up: Koate® containing vWF, FVIII, and albumin was a product of Bayer Corp; tissue Bayer Corp. (Clayton, N.C.) Koate; host or cells: plasma-derived concentrate (Koate)
Protocol: Adsorption isotherms were measured in a batch mode. In a siliconized microcentrifuge tube, 0.1 ml wet gel was mixed with vWF solution of 10 mM HEPES, 5 mM calcium chloride and 0.5M sodium chloride at pH 7 in a total volume of 0.3 ml. The microcentrifuge tube was incubated at 25° C. for 20 minutes, then the gel was separated from the solution by microcentrifugation. The concentrations of vWF in solutions were measured both by absorbance at 280 nm with an extinction coefficient of 1.2 for 1 mg/ml vWF and by ELISA.
Interactions between RVRSFY directly synthesized on Toyopearl and vWF were studied through adsorption isotherm measurements. Because vWF consists of a wide range of molecular weights, complex theoretical analyses are required to obtain binding constants from the adsorption isotherms. In addition, different multimers of vWF may have different binding constants. To simplify the analyses, vWF with molecular weight around 1000 kDa was fractionated from Koate using size exclusion chromatography with Bio-Gel A-5M gel (BioRad) and analyzed by nonreducing agarose gel electrophoresis.
An increase of peptide density increases adsorption of vWF. A minimum peptide density, 32 mg peptide Ac-RVRSFYK/ml resin ([…]), is required for the binding of vWF to the peptide. The Langmuir equation was used to fit these isotherms, and the association constants and maximum capacities obtained from curve fits are listed in Table 3. They show an increase of association constant and maximum binding capacity with an increase of peptide density mobilized on the Toyopearl resin.

[2] = target: T1, von Willebrand Factor (vWF); experiment: Purification of vWF from cryoprecipitate PEG filtrate of human plasma on peptide-Toyopearl column
Protocol: The starting material called PEG filtrate was processed from human plasma cryoprecipitate at Bayer Corp. (Clayton, N.C.). This material contained vWF, FVIII, significant fibrinogen, fibronectin, and IgM. The PEG filtrate was treated with 1% TNBP (tri-n-butylphosphate) and 0.5 % Tween 20 (from Aldrich) at 30° C. for 3 hours. After the treatment, the mixture was directly injected onto peptide affinity columns.
Confirmation of the purification of vWF on RVRSFY-Toyopearl was performed using PEG filtrate as the starting material (FIG. 2). Inclusion of a 0.15M NaCl wash and an additional 0.35M NaCl wash removed the bulk of the albumin. Bound vWF was eluted with 2% acetic acid.
The PEG filtrate was treated with virus inactivation reagents, 1% TNBP and 0.5% Tween 20 at 30° C. for 3 hours. The treated PEG fitrate was injected directly into the column. […] Approximately 74% of the total vWF was eluted with 0.35M CaCl2 (small peak at 10 min).

[3] = target: T1, von Willebrand Factor (vWF); experiment: Peptide-Toyopearl affinity column chromatography of Koate; vWF in fractions by ELISA, protein by A280; set-up: Koate® containing vWF, FVIII, and albumin was a product of Bayer Corp; tissue Bayer Corp. (Clayton, N.C.) Koate; host or cells: plasma-derived concentrate (Koate); conditions: for % vWF by ELISA, flow through / % area of acid peak / % vWF by ELISA, acid / % vWF by ELISA, salt: Table 2; for % vWF by ELISA, flow through / % area of acid peak: 1 ml column; for % area of acid peak: 2% acetic acid peak; for % vWF by ELISA, salt: NaCl gradient eluate
Protocol: The gel slurry (1 ml wet gel mixed with 2 ml degassed PBS and 1 M sodium chloride buffer) was transferred into a packing device (from PerSeptive Biosystems, Framingham, Mass.) and packed into a PEEK column (0.75 cm×5 cm from Alltech, Deerfield, Ill.) at a flow rate of 8 ml/min. […] The column was washed with at least 4 bed volumes of binding buffer (10 mM HEPES, 100 mM NaCl, 5 mM calcium chloride at pH 7) and elution buffer (2% acetic acid), then equilibrated with binding buffer.
Protein concentrations were monitored by A280 absorbance. Samples were characterized using vWF ELISA. Briefly, anti-vWF antibody (from Accurate Inc. N.Y.) was coated on each well of a microliter plate (96 wells from Corning, N.Y. 14831) overnight using 100 μl solution of antibody diluted 200 times in 0.1M sodium bicarbonate buffer at pH 9.6. Each well was then blocked with 300 μl solution of 1% BSA in PBS for 1 hour at room temperature. The plate was washed 5 times with PBS. Pure vWF and the collected samples were diluted to a concentration range between 0.02 to 0.2 μg/ml using 1 mg/ml BSA in PBS. Each sample (100 μl) was incubated with the anti-vWF coated well for 1 hour at room temperature and the plate was washed 5 times with PBS plus 0.1% Tween 20. A second anti-vWF antibody with horse radish peroxidase (HRP) conjugate (from DAKO, Glostrup, Denmark) at a concentration of 1 to 500 dilution was introduced to each well and incubated for i hour at room temperature. The plate was washed again with PBS plus 0.1% Tween 20 for 5 times. Substrate ABTS (2,2'-azino-bis(3-ethylbenz-thiazoline-6-sulfonic acid)) and H2 O2 were used for the kinetic reading at 410 nm using Bio Kinetics Reader from BioTek (Winooski, Vt.).
Peptide RLRSFY was directly synthesized (25) onto a modified Toyopearl resin (--(β-Ala)2 -Toyopearl) and the resin was packed in a 1 ml column (0.7×2.5 cm). Koate (Bayer's product containing vWF, FVIII and human albumin) was applied to the column at a flow rate of 2 ml/min in binding buffer (10 mM HEPES, 5 mM calcium chloride and 0.1M NaCl, pH 7). After 1 min of washing in binding buffer, a linear gradient from 0.1 to 1M NaCl in HEPES buffer was applied to the column over 5 min. The elution with high salt concentration was maintained for another 1 min, before 2% acetic acid was used to elute the retained protein. […] The remainder was eluted using 2% acetic acid. In a control experiment in which no peptide was attached to the resin (only --(β-Ala)2 -Toyopearl), almost all protein from 0.1 ml Koate flowed through the column under the same conditions used for the peptide-Toyopearl column.
Single conservative amino acid substitutions at the first three positions of RLRSFY were synthesized directly on (β-Ala)2 -Toyopearl. Amino acid substitutions used for both positions of arginine (R) were histidine (H), lysine (K), glutamine (Q), and asparagine (N). Substitutions for leucine (L) include isoleucine (I), valine (V), phenylalanine (F), and tyrosine (Y). These individual substitutions created 12 unique peptide sequences. (SEQ ID NOS: 1 to 12 ) After the resins were packed into 1 ml glass columns, 0.1 ml Koate was applied to each column and eluted with sodium chloride gradient and 2% acetic acid, same as in FIG. 1. Fractions were collected and analyzed for A280 absorbance and ELISA. […] The substitution of the R at the third position from the N-terminus had no effect on the capture of vWF from Koate. […] Maximum vWF binding occurred when L was substituted for V.

[4] = target: T1, von Willebrand Factor (vWF); experiment: as above; set-up: Koate® containing vWF, FVIII, and albumin was a product of Bayer Corp; tissue Bayer Corp. (Clayton, N.C.) Koate; host or cells: plasma-derived concentrate (Koate); conditions: for percentage of vWF eluted: 0.5M calcium chloride

Row | Substance | % vWF by ELISA, flow through ([3]; 0.1 ml Koate) | % area of acid peak ([3]; 0.1 ml Koate) | % vWF by ELISA, acid ([3]; 2% acetic acid eluate) | % vWF by ELISA, salt [3] | also measured
1 | Ac-RVRSFYK-amide (Ac-RVRSFYK-NH2) [Ac-RVRSFYK-Toyopearl, peptide immobilized to Toyopearl-Epoxy-650M resin through the C-terminal lysine] |  |  |  |  | Association constant ([1]; peptide density 32 mg/ml): 882000 M⁻¹; Maximum capacity ([1]; peptide density 32 mg/ml): 2.32 mg/mL; Association constant ([1]; peptide density 45 mg/ml): 1.12e+06 M⁻¹; Maximum capacity ([1]; peptide density 45 mg/ml): 7.3 mg/mL; Association constant ([1]; peptide density 54 mg/ml): 1.68e+06 M⁻¹; Maximum capacity ([1]; peptide density 54 mg/ml): 9.7 mg/mL; Association constant ([1]; peptide density 60 mg/ml): 2.06e+06 M⁻¹; Maximum capacity ([1]; peptide density 60 mg/ml): 10.33 mg/mL; total vWF eluted ([2]; PEG filtrate treated with TNBP/Tween 20, 54 mg/ml peptide, eluted with 0.35M CaCl2): Approximately 74%; vWF recovered in all fractions (ELISA) ([3]; 0.1 ml Koate, 0.4 ml column, 54 mg/ml peptide): 87.8%; percentage of vWF eluted ([3]; 0.5M calcium chloride, 30° C.): 89%; vWF captured by the peptide column ([3]; Koate, between pH 6 and 7): about 95%; vWF captured by the peptide column ([3]; Koate, solution pH 5): 91%; captured vWF eluted ([3]; calcium and magnesium concentrations higher than 0.3M): about 80%; release of captured vWF by salt elution ([3]; elution with 2M NaCl, Koate): not released; total vWF in the CaCl2 fraction (ELISA) ([4]; 0.1 ml Koate, 0.4 ml column, 54 mg/ml peptide, 0.5M CaCl2): 82.5%; percentage of vWF eluted ([4]; 22° C.): 80%; percentage of vWF eluted ([4]; 26° C.): 85%; vWF captured by the peptide column ([4]; Koate, solution pH 4.6): 65%
2 | HLRSFY (not fully specified (C-terminus)) | 0.75% | 26.7% | 32.7% | 0.28% | 
3 | KLRSFY (not fully specified (C-terminus)) | 1.03% | 27.1% | 26.94% | 9.83% | 
4 | NLRSFY (not fully specified (C-terminus)) | 19.96% | 14.8% | 6.98% | 11.88% | 
5 | QLRSFY (not fully specified (C-terminus)) | 29.45% | 9.2% | 2.20% | 11.69% | 
6 | RFRSFY (not fully specified (C-terminus)) | 0.20% | 27.8% | 47.96% | 0.07% | 
7 | RIRSFY (not fully specified (C-terminus)) | 1.92% | 28.0% | 44.78% | 4.09% | 
8 | RLHSFY (not fully specified (C-terminus)) | 1.77% | 24.9% | 50.72% | 2.89% | 
9 | RLKSFY (not fully specified (C-terminus)) | 0.60% | 25.1% | 45.58% | 3.59% | 
10 | RLNSFY (not fully specified (C-terminus)) | 0.26% | 24.5% | 47.68% | 1.50% | 
11 | RLQSFY (not fully specified (C-terminus)) | 0.46% | 20.1% | 50.68% | 0.54% | 
12 | RLRSFY (not fully specified (C-terminus)) [RLRSFY-Toyopearl, phage-library-derived peptide directly synthesized onto modified Toyopearl resin (--(β-Ala)2-Toyopearl)] |  |  |  |  | protein that did not bind to the peptide resin or was loosely bound and eluted by sodium chloride ([3]; 0.1 ml Koate): about 60%; A280, flow through ([3]; 0.1 ml Koate (input A280 7.8), flow through fraction ×4 ml): 0.071; A280, acid ([3]; 0.1 ml Koate, 2% acetic acid fraction ×4 ml): 0.070; A280, salt ([3]; 0.1 ml Koate, NaCl gradient 0.1 to 1M fraction ×12 ml): 0.014; vWF recovered in the acid peak ([3]; Koate, 2% acetic acid): Approximately one-half; retention of vWF by column ([3]; Koate, could not be eluted by sodium chloride up to 1M): Most of the vWF was retained; % vWF activity by ELISA, acid ([3]; Table 1, 0.1 ml Koate, 2% acetic acid eluate): 49.78%; % vWF activity by ELISA, salt ([3]; Table 1, 0.1 ml Koate, NaCl eluate): 0.09%; % vWF activity by ELISA, flow through ([3]; Table 1, 0.1 ml Koate, flow through): 1.6%; % recovery (A280 mass balance) ([3]; total protein recovered from column): 95%
13 | RVRSFY (not fully specified (C-terminus)) | 0.09% | 30.2% | 55.78% | 0.08% | Association constant ([1]; vWF around 1000 kDa, peptide directly synthesized on Toyopearl, Langmuir fit): 1.31e+06 M⁻¹; purification of vWF (SDS-PAGE) ([2]; PEG filtrate, 0.15M and 0.35M NaCl washes, 2% acetic acid elution): highly purified
14 | RYRSFY (not fully specified (C-terminus)) | 1.65% | 27.1% | 51.72% | 0.14% | 
